Data as given in paper PMC6613617, “Human DNA polymerase delta requires an iron–sulfur cluster for high-fidelity DNA synthesis” (Life Science Alliance, 2019).
Where a chain is given by its changes, count along the chain named. In names and notes the source's numbering stands.

T1: N-terminally Flag-tagged POLD1 (catalytic subunit of human DNA polymerase delta), wild type (human, UniProt P28340 1-1107)
T1 construct: DNA polymerase delta catalytic subunit POLD1/p125, human; also called p125; Flag-POLD1; source: Sf9 insect cells, baculovirus co-infection, in lysate; Flag-purified (Flag-M2 agarose, 3x Flag peptide elution); not shown: Flag, N-terminal, kept
T1 sequence (looked up): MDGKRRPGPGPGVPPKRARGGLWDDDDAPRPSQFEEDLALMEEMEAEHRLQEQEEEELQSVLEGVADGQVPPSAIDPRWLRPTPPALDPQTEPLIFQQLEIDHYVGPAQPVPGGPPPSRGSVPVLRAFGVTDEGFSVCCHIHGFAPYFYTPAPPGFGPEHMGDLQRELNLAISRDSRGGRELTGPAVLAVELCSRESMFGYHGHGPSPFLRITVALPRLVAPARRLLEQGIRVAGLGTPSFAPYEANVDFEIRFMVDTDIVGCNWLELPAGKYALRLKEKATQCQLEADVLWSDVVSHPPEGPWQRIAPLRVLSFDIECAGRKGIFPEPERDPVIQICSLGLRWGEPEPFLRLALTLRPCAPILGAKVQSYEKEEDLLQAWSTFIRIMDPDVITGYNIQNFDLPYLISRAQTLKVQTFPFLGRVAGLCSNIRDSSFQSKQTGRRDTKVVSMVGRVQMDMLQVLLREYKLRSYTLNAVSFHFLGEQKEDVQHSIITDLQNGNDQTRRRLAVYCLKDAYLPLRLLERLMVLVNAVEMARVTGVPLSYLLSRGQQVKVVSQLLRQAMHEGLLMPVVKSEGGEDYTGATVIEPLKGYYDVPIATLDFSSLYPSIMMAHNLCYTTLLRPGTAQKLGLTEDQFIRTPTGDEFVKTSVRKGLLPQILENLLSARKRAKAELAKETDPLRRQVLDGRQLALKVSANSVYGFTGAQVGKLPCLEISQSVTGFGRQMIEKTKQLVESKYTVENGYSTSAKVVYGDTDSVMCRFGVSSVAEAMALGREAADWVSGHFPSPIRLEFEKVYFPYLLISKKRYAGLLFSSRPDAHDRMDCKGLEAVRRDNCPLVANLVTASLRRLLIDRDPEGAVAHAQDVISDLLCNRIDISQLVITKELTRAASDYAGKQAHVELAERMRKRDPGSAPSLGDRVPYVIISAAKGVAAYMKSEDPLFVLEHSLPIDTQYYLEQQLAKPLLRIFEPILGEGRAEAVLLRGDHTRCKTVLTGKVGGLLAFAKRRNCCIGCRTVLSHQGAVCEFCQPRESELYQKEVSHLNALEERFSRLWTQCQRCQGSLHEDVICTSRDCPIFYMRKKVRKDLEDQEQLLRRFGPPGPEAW

T2: N-terminally Flag-tagged POLD1 C1076S (human, UniProt P28340 1-1107, C1076S)
T2 construct: DNA polymerase delta catalytic subunit POLD1/p125, human; variant made by site-directed mutagenesis; also called CS; Pol δ-CS (bait subunit); source: Sf9 insect cells, baculovirus co-infection, in lysate; Flag-purified (Flag-M2 agarose, 3x Flag peptide elution); not shown: Flag, N-terminal, kept
T2 sequence (looked up): T1 sequence (looked up) with C1076S

B1: POLD3 (accessory subunit of human DNA polymerase delta), untagged (natural protein, UniProt Q15054 1-466, looked up)
chain: MADQLYLENIDEFVTDQNKIVTYKWLSYTLGVHVNQAKQMLYDYVERKRKENSGAQLHVTYLVSGSLIQNGHSCHKVAVVREDKLEAVKSKLAVTASIHVYSIQKAMLKDSGPLFNTDYDILKSNLQNCSKFSAIQCAAAVPRAPAESSSSSKKFEQSHLHMSSETQANNELTTNGHGPPASKQVSQQPKGIMGMFASKAAAKTQETNKETKTEAKEVTNASAAGNKAPGKGNMMSNFFGKAAMNKFKVNLDSEQAVKEEKIVEQPTVSVTEPKLATPAGLKKSSKKAEPVKVLQKEKKRGKRVALSDDETKETENMRKKRRRIKLPESDSSEDEVFPDSPGAYEAESPSPPPPPSPPLEPVPKTEPEPPSVKSSSGENKRKRKRVLKSKTYLDGEGCIVTEKVYESESCTDSEEELNMKTSSVHRPPAMTVKKEPREERKGPKKGTAALGKANRQVSITGFFQRK
notes: DNA polymerase delta subunit 3 POLD3/p66, human; Expressed from a cassette with self-cleaving T2A peptides; T2A remnants probably stay on its ends and differ between the two cassettes (my surmise); also called p66; source: Sf9 insect cells, baculovirus co-infection (POLD2-T2A-POLD3-T2A-POLD4 or POLD2-T2A-POLD3 cassette), in lysate; co-purified with Flag-POLD1
B2: POLD2 (accessory subunit of human DNA polymerase delta), untagged (natural protein)
chain: not shown
notes: DNA polymerase delta subunit 2 POLD2/p50, human; Expressed from a cassette with self-cleaving T2A peptides; A T2A remnant probably stays on its C-terminus (my surmise); also called p50; source: Sf9 insect cells, baculovirus co-infection (POLD2-T2A-POLD3-T2A-POLD4 or POLD2-T2A-POLD3 cassette), in lysate; co-purified with Flag-POLD1
B3: POLD4 (accessory subunit of human DNA polymerase delta), untagged (natural protein, UniProt Q9HCU8 1-107, looked up)
chain: MGRKRLITDSYPVVKRREGPAGHSKGELAPELGEEPQPRDEEEAELELLRQFDLAWQYGPCTGITRLQRWCRAKQMGLEPPPEVWQVLKTHPGDPRFQCSLWHLYPL
notes: DNA polymerase delta subunit 4 POLD4/p12, human; Expressed from a cassette with self-cleaving T2A peptides; A residue of the T2A probably stays on its N-terminus (my surmise); also called p12; source: Sf9 insect cells, baculovirus co-infection (POLD2-T2A-POLD3-T2A-POLD4 cassette), in lysate; co-purified with Flag-POLD1

Key:
[1] = target: T1, N-terminally Flag-tagged POLD1 …; test: pull-down; Flag-pull down (Flag-M2 agarose) from lysate of Sf9 cells co-expressing Flag-POLD1 variant, POLD2, POLD3, POLD4 and untagged PCNA; 50 mM Tris-HCl pH 8.0, 200 mM NaCl, 0.25% NP-40, 4°C; SDS-PAGE with protein stain; conditions: partners not purified
[2] = target: T2, N-terminally Flag-tagged POLD1 C1076S; test: as above; conditions: partners not purified

Binder	binding result [1]	binding result [2]
B1	binds	binds
B2	–	binds
B3	binds	binds
